According to publication PMC3910249 (Molecular cell, 2013):

Target: T1, FtsY NG domain (SRP receptor FtsY, residues 196-498) (E. coli, UniProt P10121 196-497)
T1 sequence (looked up): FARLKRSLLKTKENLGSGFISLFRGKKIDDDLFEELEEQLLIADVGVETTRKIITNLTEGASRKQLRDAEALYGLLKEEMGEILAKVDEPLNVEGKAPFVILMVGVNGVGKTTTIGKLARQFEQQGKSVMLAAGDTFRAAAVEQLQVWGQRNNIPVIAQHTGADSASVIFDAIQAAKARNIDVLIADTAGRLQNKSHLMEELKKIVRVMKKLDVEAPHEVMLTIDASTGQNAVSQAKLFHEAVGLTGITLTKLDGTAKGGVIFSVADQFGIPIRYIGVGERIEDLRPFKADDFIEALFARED
Test: SEC

binding result: binds
B1: Ffh NG domain (signal recognition particle protein Ffh, residues 1-298) (domain or fragment, E. coli, UniProt P0AGD7 1-298, looked up)
chain: MFDNLTDRLSRTLRNISGRGRLTEDNVKDTLREVRMALLEADVALPVVREFINRVKEKAVGHEVNKSLTPGQEFVKIVRNELVAAMGEENQTLNLAAQPPAVVLMAGLQGAGKTTSVGKLGKFLREKHKKKVLVVSADVYRPAAIKQLETLAEQVGVDFFPSDVGQKPVDIVNAALKEAKLKFYDVLLVDTAGRLHVDEAMMDEIKQVHASINPVETLFVVDAMTGQDAANTAKAFNEALPLTGVVLTKVDGDARGGAALSIRHITGKPIKFLGVGEKTEALEPFHPDRIASRILGMG
